The values below come from article PMC2887963 (Nucleic Acids Research, 2010).

For data set [1], the target named is T1, (His)6-RcsB (Escherichia coli, UniProt P0DMC7 1-216).
T1 sequence: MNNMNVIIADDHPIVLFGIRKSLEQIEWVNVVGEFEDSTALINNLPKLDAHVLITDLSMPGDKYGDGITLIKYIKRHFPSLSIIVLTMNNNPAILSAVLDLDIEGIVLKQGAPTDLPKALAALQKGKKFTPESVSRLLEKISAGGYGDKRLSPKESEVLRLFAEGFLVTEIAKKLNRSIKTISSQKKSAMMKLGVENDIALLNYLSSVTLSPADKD
The data set is described as follows: native gel or EMSA. On the technique in general: A gel shift assay detects complexes by their altered migration in electrophoresis.

Data set [2] has as its target T2, MBP-RcsB (Escherichia coli (MG1655 strain), UniProt P0DMC7 1-216).
T2 sequence: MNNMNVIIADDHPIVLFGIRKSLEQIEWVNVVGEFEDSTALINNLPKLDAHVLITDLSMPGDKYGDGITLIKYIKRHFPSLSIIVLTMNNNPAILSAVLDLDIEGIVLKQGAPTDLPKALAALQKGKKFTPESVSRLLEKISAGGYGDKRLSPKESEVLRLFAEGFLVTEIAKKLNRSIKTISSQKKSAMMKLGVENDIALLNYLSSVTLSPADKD
The data set is described as follows: native gel or EMSA.

Data set [3] concerns the molecule itself.
Data set [4] addresses T3, (His)6-RcsB (Escherichia coli, UniProt P0DMC7 1-216).
T3 sequence: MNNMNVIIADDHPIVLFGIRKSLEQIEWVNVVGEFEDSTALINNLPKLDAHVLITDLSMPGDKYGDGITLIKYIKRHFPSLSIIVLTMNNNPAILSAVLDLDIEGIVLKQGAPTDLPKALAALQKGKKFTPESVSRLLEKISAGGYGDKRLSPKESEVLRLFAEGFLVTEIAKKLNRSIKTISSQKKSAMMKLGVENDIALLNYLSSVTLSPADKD
The data set is described as follows: EMSA.

B1: MBP-GadE (natural protein)
chain: MIFLMTKDSFLLQGFWQLKDNHEMIKINSLSEIKKVGNKPFKVIIDTYHNHILDEEAIKFLEKLDAERIIVLAPYHISKLKAKAPIYFVSRKESIKNLLEITYGKHLPHKNSQLCFSHNQFKIMQLILKNKNESNITSTLNISQQTLKIQKFNIMYKLKLRRMSDIVTLGITSYF
The term stoichiometry N denotes a count of units in the complex or per binding partner. With B1, the binding result in data set [1] and in data set [2] was “binds” in each case. Moreover, in data set [3], the “stoichiometry N” value is 2.

B2: (His)6-GadE (natural protein)
chain: MIFLMTKDSFLLQGFWQLKDNHEMIKINSLSEIKKVGNKPFKVIIDTYHNHILDEEAIKFLEKLDAERIIVLAPYHISKLKAKAPIYFVSRKESIKNLLEITYGKHLPHKNSQLCFSHNQFKIMQLILKNKNESNITSTLNISQQTLKIQKFNIMYKLKLRRMSDIVTLGITSYF
On to B2, for which the binding result in data set [1] and in data set [2] was “binds” throughout.

B3: gadA promoter -101 to +24 (dsDNA)
DNA 1: GTTTATATTATAAAAAGTCGTTTTTCTGCTTAGGATTTTGTTATTTAAATTAAGCCTGTAATGCCTTGCTTCCATTGCGGATAAATCCTACTTTTTTATTGCCTTCAAATAAATTTAAGGAGTTC
DNA 2: GAACTCCTTAAATTTATTTGAAGGCAATAAAAAAGTAGGATTTATCCGCAATGGAAGCAAGGCATTACAGGCTTAATTTAAATAACAAAATCCTAAGCAGAAAAACGACTTTTTATAATATAAAC
B3: the binding result in data set [4] is listed as “binds”.
